The values below are quoted from earlier work in PMC4775371.

This series deals with H1.0 (UniProt P07305).
Sequence of UniProt P07305 (P07305 2-194): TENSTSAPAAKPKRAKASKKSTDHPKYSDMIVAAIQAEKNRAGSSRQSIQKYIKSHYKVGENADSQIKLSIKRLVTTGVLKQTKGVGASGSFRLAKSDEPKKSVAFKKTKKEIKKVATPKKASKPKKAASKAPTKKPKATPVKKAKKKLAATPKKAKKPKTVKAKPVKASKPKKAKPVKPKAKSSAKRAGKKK

On to FACT (from UniProt Q9Y5B9), for which the Kd is 32 nM.
